First the molecules themselves.
B1: TPR t1 (parent)
chain: GACCAAUCUGCCCUCAGAGCUCGAGAACAUCUUCGGAUGCAGAGGAGGCAGGCUUCGGUGGCGCGAUAGCGCCAACGUCCUCAACCUCCAAUGCAUCCCACCACAUGAUGAUGCCUGAAGAGCCUUGGUUUUUUG

This data set covers variants of B1. Put plainly: polymerase ribozyme fitness, log enrichment relative to wild type (log ratio); higher = more active; in vitro selection for triplet polymerase activity. An outline of the steps:
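For each subunit of a heterodimeric triplet polymerase ribozyme, a mutant library was built by PCR and transcribed, then taken through a single in vitro selection round in triplicate. Selection involved annealing to a biotinylated primer, the partner subunit and triplets, incubation frozen at −7 °C, gel excision of extended constructs, capture on streptavidin beads and RT-PCR. Genotypes were retained after Illumina sequencing of inputs and outputs only with ≥10 input reads and ≥1 read in each output. Fitness is defined as the logarithm of a genotype's enrichment relative to wild-type enrichment, using inverse-variance-weighted averages across replicates, with the logarithm taken to base 2.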
For A103U G120A C123U, the “polymerase ribozyme fitness (log ratio)” value is -4.53.
Regarding A100C C104U A121G, the “polymerase ribozyme fitness (log ratio)” value was found to be 1.96.
Then C97G U129A, with -5.28; and C101A A111C, with -0.305.
Turning to G107A U112A, the “polymerase ribozyme fitness (log ratio)” value is -5.07.
For the variant C97G G107C A111U, the “polymerase ribozyme fitness (log ratio)” value was -7.12.
Regarding C97G U112A, the “polymerase ribozyme fitness (log ratio)” value is -3.48.
As for U106C U125A, the figure is -0.83; as for U106A G135U, -0.228; as for A103U C114U, -4.99.
As for U106A C115U G127U, the figure is -1.18; as for C101A G135U, -2.11.
Then C99U G120U, with -3.34; and C97G U130G, with -4.67; and C98U U130G, with -0.947.
Turning to C97U U112G U116A U129C, the “polymerase ribozyme fitness (log ratio)” value is -4.3.
Then C99U U130A, with -3.71; and C101A G117C A121U, with -4.18.
Take A100U U132C: the “polymerase ribozyme fitness (log ratio)” value is -0.866.
Then A100U U132A, with -0.727.
As for C104U U109G, the “polymerase ribozyme fitness (log ratio)” value is -3.57.
As for C102U G110C, the figure is -7.27; as for C101A C114G, -3.4; as for U106G, -1.17.
As for U106A, the figure is 0.145.
Regarding U106C, the “polymerase ribozyme fitness (log ratio)” value was -0.282.
As for C101A C115A G120C, the figure is -0.291; as for C97U U129C, -1.16; as for C98U A108G, -6.36.
Then U96C G110U, with -0.753; and U96C G110A, with -0.613; and A105G U132A, with -1.89.
As for G107U G117C, the figure is -4.7; as for U106C G127C, -1.07; as for U96G U125A, -0.674.
With C101G U112A, the “polymerase ribozyme fitness (log ratio)” value is 0.152.
Then U96C U112A A121U, with 1.86.
As for C101U A111C, the figure is 0.393; as for A105U G120U C123U, -2.19; as for U106A U126C, -0.645.
As for C98A C123A, the figure is -3.79; as for U96G A111G U125G, -1.74.
For A108G U109A C124A, the “polymerase ribozyme fitness (log ratio)” value is -4.41.
As for C98U U126G G128U, the figure is -2.42; as for G107C G135U, -5.77.
As for C104G A119G, the figure is -6.88; as for U96G U130G, -1.28.
As for G107A U133G, the figure is -4.3; as for C101A C115A A121C U125A, -0.732.
On to A103U A118G, for which the “polymerase ribozyme fitness (log ratio)” value was -5.56.
On to A103U A118U, for which the “polymerase ribozyme fitness (log ratio)” value is -4.32.
Then C97U U116G G135U, with -3.49; and C104U A111G, with 0.178; and C97U A103U, with -5.3.
As for A100U U130A, the figure is -0.606.
As for A103C G113C, the figure is -5.94; as for C102U U125G, -1.4; as for U109A U116G, -5.73.
For the variant C98U C114G, the “polymerase ribozyme fitness (log ratio)” value is -5.02.
Then C98U C114U, with -3.88; and G107A G120U, with -4.71.
As for C104A U133A, the figure is -1.68.
Then A105G A121C, with -0.542.
Turning to C99U C101A A121G C124G, the “polymerase ribozyme fitness (log ratio)” value was -3.31.
As for C102A U126G, the figure is -2.89; as for U96G C102G G113U, -5.71; as for C104U G122A, 0.442.
Then C101A C115G, with -2.5.
Then C101A C115A, with -1.02.
Consider A103G U112C, for which the “polymerase ribozyme fitness (log ratio)” value was -3.53.
As to C98A C101U G110U G120U C123G U130G, the “polymerase ribozyme fitness (log ratio)” value was -5.9.
As for C104A U130A, the figure is -2.46; as for A105U G113C, -5.86; as for C97A G120U, -4.3.
For C97A G120C, the “polymerase ribozyme fitness (log ratio)” value was -4.1.
As for C97A G120A, the figure is -3.9.
With C104U A105C U131C, the “polymerase ribozyme fitness (log ratio)” value is -2.36.
As for U106G C124A, the figure is 1.19; as for U106A C123A, 0.524; as for C104U G127C, -1.03.
Then C99A C123U, with -6.27; and C99U G128U, with -5.25.
As for C98A U109A, the figure is -5.81; as for C97U G128A, -2.66; as for U106C U132A, -0.182.
On to C99U U129G, for which the “polymerase ribozyme fitness (log ratio)” value was -3.83.
Then U96G U109C, with -4.85; and C97U A118U, with -2.1; and G107A C114U, with -3.83.
On to C97G G120C, for which the “polymerase ribozyme fitness (log ratio)” value is -4.64.
Take A105C C115U: the “polymerase ribozyme fitness (log ratio)” value was -4.02.
With C99A C124A, the “polymerase ribozyme fitness (log ratio)” value is -4.35.
Then C104U U106C G120U, with -0.245; and C104U G128C, with -1.84; and A103C C123A, with -5.15.
As for C102A G120A A121C C124U, the figure is -0.193; as for C98G C115A, -5.15.
As for C102U U109G, the figure is -5.46; as for G107A U116C, -5.17.
As for C102A G128C U132G G135U, the “polymerase ribozyme fitness (log ratio)” value was -3.41.
As for U106A C115G, the figure is -3.75; as for C101G A121C, -0.583; as for A108U U112A, -4.85.
Then A108U U112C, with -5.97.
Then C98U U129C, with -1.46; and C102A C114A, with -4.17.
Take U106C U116A: the “polymerase ribozyme fitness (log ratio)” value was -2.94.
As for A108G C115U, the figure is -3.36; as for A103U U130G, -5.63.
As for C99A G110U, the figure is -4.34.
As for C99A G110A, the figure is -5.17; as for C98U G110C U131A, -5.64; as for U109A C114U A121C, -4.32.
Regarding C101U C104G U109G, the “polymerase ribozyme fitness (log ratio)” value was -6.55.
In the case of C97G G120A A121U, the “polymerase ribozyme fitness (log ratio)” value was -3.45.
Consider C98A A111U G122A C124G, for which the “polymerase ribozyme fitness (log ratio)” value is -6.05.
Then C97G C114U, with -5.14.
Then U96C A118U U129C, with -0.593; and G107U A121U U132A, with -2.5.
As for C101A U106C U133A, the figure is -0.867; as for G107U C123G, -2.37.
Turning to C97U U106G C123U, the “polymerase ribozyme fitness (log ratio)” value is -2.04.
As for C104U C115U, the figure is -0.334.
As for A100C A111G, the figure is 0.924; as for A105C G110U, -3.75; as for A105C G110A, -5.26.
As for A105C U133A, the figure is -2.08.
With U109C C124A, the “polymerase ribozyme fitness (log ratio)” value was -1.7.
Turning to C104U G120U G135U, the “polymerase ribozyme fitness (log ratio)” value was -0.513.
For the variant U109A U133A, the “polymerase ribozyme fitness (log ratio)” value was -5.88.
As for U109G G120A, the figure is -4.17.
As for U96G, the figure is -0.532; as for A103C G120U, -4.69.
As for A103C G120A, the figure is -3.52; as for U106C G113U, -3.01.
As to C104A U106A, the “polymerase ribozyme fitness (log ratio)” value is -2.51.
In the case of A103U A119G, the “polymerase ribozyme fitness (log ratio)” value was -4.5.
As for C98U G117U G120C U132C, the figure is -3.23; as for U109A U112A, -4.47; as for U106A G128C, -2.95.
As for A108G G135U, the figure is -2.4; as for G107C A121U, -3.13; as for C102U U132C, -1.91.
Then C98U U112G, with -3.32.
Take C102A G110A: the “polymerase ribozyme fitness (log ratio)” value is -4.38.
Then C104U U129C, with -0.415; and U96G C124A, with 1.39.
Then G107C G120U, with -3.85.
As for G107C, the figure is -5.46; as for G107U, -4.78.
Turning to G107A, the “polymerase ribozyme fitness (log ratio)” value is -4.86.
Turning to C102G G120U, the “polymerase ribozyme fitness (log ratio)” value was -6.6.
As for C101A U131G, the figure is -1.9; as for C102A A111G C115A A118U, -4.83; as for C104A U112G C123G, -1.23.
For the variant C104G A105U A111C G122A, the “polymerase ribozyme fitness (log ratio)” value was -7.2.
As for C104G C124U, the figure is -6.14; as for U106A U112A U129C, 0.363; as for A103G A118G C124G, -5.79.
For the variant U109A G117U, the “polymerase ribozyme fitness (log ratio)” value was -5.72.
As for C101G U129G, the figure is -2.29; as for A103G C124U, -3.1; as for C97G G113C G122U, -5.4.
Regarding C104U G120U, the “polymerase ribozyme fitness (log ratio)” value is -0.787.
Then G110A, with -0.79.
As for C98G G110A, the figure is -4.98.
Then C99U C114A, with -4.84.

For the origin of these results see the RNAGym collection of RNA variant scans (doi:10.1073/pnas.2313332121).
